Source: US8889126B2, “Methods and compositions for treating neuropathies” (Washington University, priority 2004, dated 2014)

Assays:
DRG neuronal explant = assay: vincristine-induced axonal degeneration in DRG neuronal explants; assay type: cell-based, mouse; settings: 0.5 μM vincristine for up to 9 d, lentiviral expression
Protocol: (§1) To identify the mechanism of delayed axonal degeneration mediated by the Wld^s protein, we employed an in-vitro Wallerian degeneration model. Primary DRG explant neurons were infected with lentivirus expressing the appropriate proteins, and axons were injured by either removal of the neuronal cell body (transection) or growth in vincristine (toxic).
Quantitative analysis of axonal degeneration was performed as previously described (Zhai, et al., Neuron 39:217-25, 2003). Briefly, the cultures were examined using phase contrast microscopy at the indicated times. Axons with a fragmented, non-refractile appearance were designated as “degenerated.” At each time point, at least 200 singly distinguishable axons were blindly scored from several randomly taken images of each culture. […] For calculations of neurite-covered area, digitally captured images from quadruplicate samples of two independent experiments were analyzed using analysis 3.1 software (Soft Imaging System, Lakewood, Colo.).
In addition to mechanical transection, axonal protection in wld^s mice is also observed against other damaging agents such as ischemia and toxins (Coleman, et al., Trends Neurosci 25:532-37, 2002; Gillingwater, et al., J Cereb Blood Flow Metab 24:62-66, 2004). […] FIG. 2C illustrates protein expression in lentivirus-infected cells detected by immunoblot analysis using antibodies to the 6×His tag. […]

DRG neurons = assay: overall cellular NAD levels in DRG neurons by microscale enzymatic assays; assay type: cell-based; settings: NMNAT1 expressing vs wild type DRG neurons
From the text: Similarly, most enzymes that make up the NAD salvage pathway in yeast are also compartmentalized in the nucleus. […] Furthermore, levels of tissue NAD in the brains of wild type and wld^s mice are similar despite the increased levels of NMNAT activity in wld^s mice (Mack, et al., Nat Neurosci, 4:1199-206, 2001).

DRG explant neurons = assay: in vitro Wallerian degeneration assay: DRG explant cultures, axonal transection by removal of neuronal cell bodies; assay type: cell-based, mouse; settings: lentivirus-infected DRG neurons
Protocol: as §1
Mouse DRG explants from E12.5 embryos were cultured in the presence of 1 nM nerve growth factor. Non-neuronal cells were removed from the cultures by adding 5-fluorouracil to the culture medium. Transection of neurites was performed at 10-20 DIV using an 18-gauge needle to remove the neuronal cell bodies. […]
Lentiviral expression vectors were generated using HEK293T cells as described above. […] These lysates were analyzed by immunoblot to using anti-His tag monoclonal antibody (Qiagen) to detect expression of the respective hexahistidine-tagged proteins. […]
Quantitative analysis of axonal degeneration was performed as previously described (Zhai, et al., Neuron 39:217-25, 2003). […] Axons with a fragmented, non-refractile appearance were designated as “degenerated.” At each time point, at least 200 singly distinguishable axons were blindly scored from several randomly taken images of each culture. […]
Cell culture, in vitro axotomy, and quantification of axonal degeneration. […] Quantitative analysis of neurite degeneration was performed.

Row | Molecule | axon length and refractility in vincristine (DRG neuronal explant) | overall cellular NAD levels (DRG neurons) | axonal degeneration after transection in neurons expressing the construct (DRG explant neurons)
1 | NMNAT1: nicotinamide mononucleotide adenylyltransferase1, murine, lentivirally expressed (protein, UniProt Q9EPA7 1-285, looked up, lentivirally expressed) Nicotinamide/nicotinic acid …: MDSSKKTEVVLLACGSFNPITNMHLRLFELAKDYMHATGKYSVIKGIISPVGDAYKKKGLIPAHHRIIMAELATKNSHWVEVDTWESLQKEWVETVKVLRYHQEKLATGSCSYPQSSPALEKPGRKRKWADQKQDSSPQKPQEPKPTGVPKVKLLCGADLLESFSVPNLWKMEDITQIVANFGLICITRAGSDAQKFIYESDVLWRHQSNIHLVNEWITNDISSTKIRRALRRGQSIRYLVPDLVQEYIEKHELYNTESEGRNAGVTLAPLQRNAAEAKHNHSTL | maintained their original length and refractility | no changes in overall cellular NAD levels were found | 
2 | dominant-negative Ufd2a mutant: Ufd2a containing a point mutation (P1140A) that inhibits wild-type Ufd2a function (protein, UniProt Q9ES00 1-1173, looked up, variant P1140A) Ubiquitin conjugation factor …: MEELSADEIRRRRLARLAGGQTSQPTTPLTSPQRENPPGPPIAASAPGPSQSLGLNVHNMTPATSPIGAAGVAHRSQSSEGVSSLSSSPSNSLETQSQSLSRSQSMDIDGVSCEKSMSQVDVDSGIENMEVDENDRREKRSLSDKEPSSGPEVSEEQALQLVCKIFRVSWKDRDRDVIFLSSLSAQFKQNPKEVFSDFKDLIGQILMEVLMMSTQTRDENPFASLTATSQPIATAARSPDRNLMLNTGSSSGTSPMFCNMGSFSTSSLSSLGASGGASNWDSYSDHFTIETCKETDMLNYLIECFDRVGIEEKKAPKMCSQPAVSQLLSNIRSQCISHTALVLQGSLTQPRSLQQPSFLVPYMLCRNLPYGFIQELVRTTHQDEEVFKQIFIPILQGLALAAKECSLESDYFKYPLMALGELCETKFGKTHPMCNLVASLPLWLPKSLSPGSGRELQRLSYLGAFFSFSVFAEDDAKVVEKYFSGPAITLENTRVVSQSLQHYLELGRQELFKILHSILLNGETREAALSYMAALVNANMKKAQMQADDRLVSTDGFMLNLLWVLQQLSTKIKLETVDPTYIFHPRCRITLPNDETRINATMEDVNERLTELYGDQPPFSEPKFPTECFFLTLHAHHLSILPSCRRYIRRLRAIRELNRTVEDLKNNESQWKDSPLATRHREMLKRCKTQLKKLVRCKACADAGLLDESFLRRCLNFYGLLIQLMLRILDPAYPDVTLPLNSEVPKVFAALPEFYVEDVAEFLFFIVQYSPQVLYEPCTQDIVMFLVVMLCNQNYIRNPYLVAKLVEVMFMTNPSVQPRTQKFFEMIENHPLSTKLLVPSLMKFYTDVEHTGATSEFYDKFTIRYHISTIFKSLWQNIAHHGTFMEEFNSGKQFVRYINMLINDTTFLLDESLESLKRIHEVQEEMKNKEQWDQLPRDQQQARQSQLAQDERVSRSYLALATETVDMFHLLTKQVQKPFLRPELGPRLAAMLNFNLQQLCGPKCRDLKVENPEKYGFEPKKLLDQLTDIYLQLDCARFAKAIADDQRSYSKELFEEVISKMRKAGIKSTIAIEKFKLLAEKVEEIVAKNARAEIDYSDAPDEFRDPLMDTLMTDPVRLPSGTVMDRSIILRHLLNSPTDAFNRQMLTESMLEPVPELKEQIQAWMREKQSSDH |  |  | neither of these methods resulted in delayed axonal degradation
3 | NmPRT: nicotinamide phosphoribosyltransferase, expressed in neurons (protein, UniProt Q99KQ4 1-491, looked up) Nicotinamide …: MNAAAEAEFNILLATDSYKVTHYKQYPPNTSKVYSYFECREKKTENSKVRKVKYEETVFYGLQYILNKYLKGKVVTKEKIQEAKEVYREHFQDDVFNERGWNYILEKYDGHLPIEVKAVPEGSVIPRGNVLFTVENTDPECYWLTNWIETILVQSWYPITVATNSREQKKILAKYLLETSGNLDGLEYKLHDFGYRGVSSQETAGIGASAHLVNFKGTDTVAGIALIKKYYGTKDPVPGYSVPAAEHSTITAWGKDHEKDAFEHIVTQFSSVPVSVVSDSYDIYNACEKIWGEDLRHLIVSRSTEAPLIIRPDSGNPLDTVLKVLDILGKKFPVTENSKGYKLLPPYLRVIQGDGVDINTLQEIVEGMKQKKWSIENVSFGSGGALLQKLTRDLLNCSFKCSYVVTNGLGVNVFKDPVADPNKRSKKGRLSLHRTPAGNFVTLEEGKGDLEEYGHDLLHTVFKNGKVTKSYSFDEVRKNAQLNIEQDVAPH |  |  | shows axonal protection
